Data reported in patent US20190142971A1, “FORMULATION AND DELIVERY OF MODIFIED NUCLEOSIDE, NUCLEOTIDE, AND NUCLEIC ACID COMPOSITIONS” (ModernaTX, Inc., priority 2013, published 2019).

Key:
[1] = system: mice; experiment: Example 65: G-CSF/EPO mRNA in saline in mice, serum protein at 13 hours (Table 97); format: in vivo; conditions: G-CSF group; 100 ug, 100 μl/mouse, F. buffer, 13 hours after injection
Protocol: The mice were bled at 13 hours after the injection to determine the concentration of the human polypeptide in serum in pg/mL. (G-CSF groups measured human G-CSF in mouse serum and EPO groups measured human EPO in mouse serum).

[2] = system: non-human primates (cynomolgus monkey); experiment: Example 22: NHP hematology: neutrophils, reticulocytes, HGB, HCT, RBC (Tables 40-44); format: in vivo; conditions: for HCT / RBC: 0.005 mg/kg
Protocol: LNP formulations, shown in Table 33 (above), were administered to non-human primates (NHP) (cynomolgus monkey) (n=2) as intravenous injection (IV). The NHP were administered a single modified mRNA IV dose of 0.5 mg/kg, 0.05 mg/kg or 0.005 mg/kg of G-CSF or EPO in a dose volume of 0.5 mL/kg. The NHPs were bled before dosing with the modified mRNA LNP formulations to determine protein expression in the serum and a baseline complete blood count. After administration with the G-CSF modified mRNA formulation the NHP were bled at 8, 24, 48 and 72 hours to determined protein expression. After administration with the EPO modified mRNA formulation the NHP were bled at 8, 24, 48, 72 hours and 7 days to determined protein expression.
Samples collected from the NHPs after they were administered with G-CSF or EPO modified mRNA formulations were analyzed by ELISA to determine protein expression. Neutrophil and reticulocyte count was also determined pre-dose, 24 hours, 3 days, 7 days, 14 days and 18 days after administration of the modified G-CSF or EPO formulation.

B1: G-CSF: modified mRNA encoding human G-CSF, SEQ ID NO: 4, Cap1, fully modified with 5-methylcytosine and pseudouridine; LNP-formulated in Examples 16-22 (nucleic acid)
chain: GGGAAAUAAGAGAGAAAAGAAGAGUAAGAAGAAAUAUAAGAGCCACCAUGGCCGGUCCCGCGACCCAAAGCCCCAUGAAACUUAUGGCCCUGCAGUUGCUGCUUUGGCACUCGGCCCUCUGGACAGUCCAAGAAGCGACUCCUCUCGGACCUGCCUCAUCGUUGCCGCAGUCAUUCCUUUUGAAGUGUCUGGAGCAGGUGCGAAAGAUUCAGGGCGAUGGAGCCGCACUCCAAGAGAAGCUCUGCGCGACAUACAAACUUUGCCAUCCCGAGGAGCUCGUACUGCUCGGGCACAGCUUGGGGAUUCCCUGGGCUCCUCUCUCGUCCUGUCCGUCGCAGGCUUUGCAGUUGGCAGGGUGCCUUUCCCAGCUCCACUCCGGUUUGUUCUUGUAUCAGGGACUGCUGCAAGCCCUUGAGGGAAUCUCGCCAGAAUUGGGCCCGACGCUGGACACGUUGCAGCUCGACGUGGCGGAUUUCGCAACAACCAUCUGGCAGCAGAUGGAGGAACUGGGGAUGGCACCCGCGCUGCAGCCCACGCAGGGGGCAAUGCCGGCCUUUGCGUCCGCGUUUCAGCGCAGGGCGGGUGGAGUCCUCGUAGCGAGCCACCUUCAAUCAUUUUUGGAAGUCUCGUACCGGGUGCUGAGACAUCUUGCGCAGCCGUGAAGCGCUGCCUUCUGCGGGGCUUGCCUUCUGGCCAUGCCCUUCUUCUCUCCCUUGCACCUGUACCUCUUGGUCUUUGAAUAAAGCCUGAGUAGGAAG
modifications: Cap1, 5-methylcytosine, pseudouridine
Average Protein Product, serum (human G-CSF) [1]: 45 pg/mL | Female NHP HGB ([2]; 0.005 mg/kg IV, 14/18 days): 129 g/L | Female NHP Neutrophils ([2]; 0.005 mg/kg IV, 14/18 days): 2.28 10^9/L | Male NHP HGB ([2]; 0.005 mg/kg IV, 14/18 days): 118 g/L | Male NHP Neutrophils ([2]; 0.005 mg/kg IV, 14/18 days): 4.31 10^9/L | Female NHP HGB ([2]; 0.005 mg/kg IV, 24 hours): 127 g/L | Female NHP Neutrophils ([2]; 0.005 mg/kg IV, 24 hours): 8.6 10^9/L | Male NHP HGB ([2]; 0.005 mg/kg IV, 24 hours): 117 g/L | Male NHP Neutrophils ([2]; 0.005 mg/kg IV, 24 hours): 16.44 10^9/L | Female NHP HGB ([2]; 0.005 mg/kg IV, 3 days): 127 g/L | Female NHP Neutrophils ([2]; 0.005 mg/kg IV, 3 days): 1.78 10^9/L | Male NHP HGB ([2]; 0.005 mg/kg IV, 3 days): 116 g/L | Male NHP Neutrophils ([2]; 0.005 mg/kg IV, 3 days): 3.74 10^9/L | Female NHP HGB ([2]; 0.005 mg/kg IV, 7 days): 129 g/L | Female NHP Neutrophils ([2]; 0.005 mg/kg IV, 7 days): 2.27 10^9/L | Male NHP HGB ([2]; 0.005 mg/kg IV, 7 days): 116 g/L | Male NHP Neutrophils ([2]; 0.005 mg/kg IV, 7 days): 7.28 10^9/L | Female NHP HGB ([2]; 0.005 mg/kg IV, Pre-dose): 129 g/L | Female NHP Neutrophils ([2]; 0.005 mg/kg IV, Pre-dose): 2.54 10^9/L | Male NHP HGB ([2]; 0.005 mg/kg IV, Pre-dose): 128 g/L | Male NHP Neutrophils ([2]; 0.005 mg/kg IV, Pre-dose): 1.52 10^9/L | HCT ([2]; 14/18 days, Female NHP): 0.42 L/L | RBC ([2]; 14/18 days, Female NHP): 5.34 10^12/L | HCT ([2]; 14/18 days, Male NHP): 0.41 L/L | RBC ([2]; 14/18 days, Male NHP): 5.37 10^12/L | HCT ([2]; 24 hours, Female NHP): 0.42 L/L | RBC ([2]; 24 hours, Female NHP): 5.35 10^12/L | HCT ([2]; 24 hours, Male NHP): 0.4 L/L | RBC ([2]; 24 hours, Male NHP): 5.34 10^12/L | HCT ([2]; 3 days, Female NHP): 0.41 L/L | RBC ([2]; 3 days, Female NHP): 5.24 10^12/L | HCT ([2]; 3 days, Male NHP): 0.4 L/L | RBC ([2]; 3 days, Male NHP): 5.32 10^12/L | HCT ([2]; 7 days, Female NHP): 0.42 L/L | RBC ([2]; 7 days, Female NHP): 5.34 10^12/L | HCT ([2]; 7 days, Male NHP): 0.39 L/L | RBC ([2]; 7 days, Male NHP): 5.25 10^12/L | HCT ([2]; Pre-dose, Female NHP): 0.42 L/L | RBC ([2]; Pre-dose, Female NHP): 5.36 10^12/L | HCT ([2]; Pre-dose, Male NHP): 0.42 L/L | RBC ([2]; Pre-dose, Male NHP): 5.67 10^12/L | Female NHP HGB ([2]; 0.05 mg/kg IV, 14/18 days): 123 g/L | Female NHP Neutrophils ([2]; 0.05 mg/kg IV, 14/18 days): 1.82 10^9/L | Male NHP HGB ([2]; 0.05 mg/kg IV, 14/18 days): 134 g/L | Male NHP Neutrophils ([2]; 0.05 mg/kg IV, 14/18 days): 3.59 10^9/L | Female NHP HGB ([2]; 0.05 mg/kg IV, 24 hours): 117 g/L | Female NHP Neutrophils ([2]; 0.05 mg/kg IV, 24 hours): 29.91 10^9/L | Male NHP HGB ([2]; 0.05 mg/kg IV, 24 hours): 122 g/L | Male NHP Neutrophils ([2]; 0.05 mg/kg IV, 24 hours): 19.92 10^9/L | Female NHP HGB ([2]; 0.05 mg/kg IV, 3 days): 115 g/L | Female NHP Neutrophils ([2]; 0.05 mg/kg IV, 3 days): 10.77 10^9/L | Male NHP HGB ([2]; 0.05 mg/kg IV, 3 days): 126 g/L | Male NHP Neutrophils ([2]; 0.05 mg/kg IV, 3 days): 7.49 10^9/L | Female NHP HGB ([2]; 0.05 mg/kg IV, 7 days): 116 g/L | Female NHP Neutrophils ([2]; 0.05 mg/kg IV, 7 days): 3.8 10^9/L | Male NHP HGB ([2]; 0.05 mg/kg IV, 7 days): 126 g/L | Male NHP Neutrophils ([2]; 0.05 mg/kg IV, 7 days): 4.13 10^9/L | Female NHP HGB ([2]; 0.05 mg/kg IV, Pre-dose): 129 g/L | Female NHP Neutrophils ([2]; 0.05 mg/kg IV, Pre-dose): 3.05 10^9/L | Male NHP HGB ([2]; 0.05 mg/kg IV, Pre-dose): 137 g/L | Male NHP Neutrophils ([2]; 0.05 mg/kg IV, Pre-dose): 13.74 10^9/L
